Patent publication US6818617B1 (Temple University- Of The Commonwealth System of Higher …, priority 1997, dated 2004)
Entries after “also recorded” stand apart in the source; their conditions may differ. Where two headings read alike, the source gives them in different places.

How the values were obtained:
α4β7 [1] = molecular target: T1, α4β7 (Homo sapiens, UniProt P13612+P26010); assay: RPMI 8866 cell adhesion to MadCAM-1; format: cell-based; set-up: endogenous in cells; host or cells: JY cells (A11); RPMI 8866 cells (A12); settings: RPMI 8866 cells, α4β7, ligand MadCAM-1
Description: (§1) Adhesion of cultured cells labeled with 5-chloromethylfluorescein diacetate (CMFDA) was performed as described earlier (Marcinkiewicz et al., Blood 90:1565-1575 (1997)). […] Wells were blocked by 1% BSA in HBSS buffer. Cells were labeled with fluorescein by incubation with 12.5 AM CMFDA in HBSS buffer containing 1% BSA at 37° C. by 15 min. Unbound label was removed by washing with the same buffer. Labeled cells (1×10^5 per sample) were added to the well in the presence or absence of inhibitors and incubated at 37° C. for 30 min. Unbound cells were removed by aspiration, the wells were washed and bound cells were lysed by adding 0.5% Triton X-100. In parallel the standard curve was prepared in the same plate from known concentrations of labelled cells. The plate was read using a Cytofluor 2350 fluorescence plate reader (Millipore, Bedford, Mass.) at 485 nm EX(excitation) filter and 530 nm (emmision) filter.
(§2) The effect of each peptide on cell adhesion was determined as described above. […] Cells that attached to the plates were lysed with detergent, and fluorescence intensity was measured. Percent inhibition was measured at each concentration and IC50 was determined.

α4β1 integrin [2] = molecular target: T2, α4β1 integrin (Homo sapiens, UniProt P05556+P13612); assay: HP2/1 antibody binding to Jurkat cells by flow cytometry; settings: 60 nM EC3, 10 μg/ml HP 2/1, flow cytometry
T2 construct: host or cells: Jurkat
Description: (§3) Samples for flow cytometry analysis were prepared as described (Marcinkiewicz et al., Biochem. J. 371:118-124 (1996)), and analyzed in a Coulter Epics flow cytometer (Miami, Fla.).
(§4) The adhesion study was performed using CMFDA-labeled Jurkat cells in the absence or presence 1 mM GRGDSP or GRGESP, or 10 μg/ml HP 2/1. Competition between EC3 and HP2/1 was also confirmed in cell suspension using FACS analysis. […] The experiment was performed using flow cytometry. Jurkat cells (open bars) or B2-CHO cells (CHO cells with deleted α5 transfected with α4) (closed bars) were incubated with 10 μg/ml HP 2/1 in the absence (a) or presence 60 nM EC3 (b) for 30 min at room temperature. After washing, 10 μg/ml of FITC-conjugated goat anti-mouse IgG was added and samples were incubated for another 30 min at room temperature. The samples were fixed by addition of 1% paraformaldehyde before measurement of fluorescence intensity.

α4β1 integrin [3] = molecular target: T3, α4β1 integrin (UniProt G3HZ55+P13612); assay: HP2/1 antibody binding to α4B2 cells by flow cytometry; set-up: species or system human; settings: 60 nM EC3, 10 μg/ml HP 2/1, flow cytometry
T3 construct: expressed in transfected cells; host or cells: B2 CHO cells (α5-deficient), gift of Dr. Y. Takada
Description: as §3, §4

α4β1 [4] = molecular target: T4, α4β1 (Homo sapiens, UniProt P05556+P13612); assay: Jurkat cell adhesion to immobilized VCAM-1; format: cell-based; set-up: host or cells: Jurkat
Description: as §1
The cell adhesion assay (as described in Example 1) was used to study the inhibitory effect of the eluted fractions on Jurkat cell adhesion to immobilized VCAM-1 and on K562 cell adhesion to fibronectin. […]
as §2

α4β1 [5] = molecular target: T4, α4β1; assay: Jurkat cell adhesion to CS-1; format: cell-based; set-up: host or cells: Jurkat; settings: Jurkat cells, ligand CS-1
Description: as §1, §2

α4β1 [6] = molecular target: T4, α4β1; settings: read-out: IC50, direct binding assay; Jurkat cells, α4β1, VCAM-Ig
Description: (§5) The direct binding assay (DBA) with VCAM-11 g alkaline phosphatase conjugate was performed using Jurkat (α4β1 expressing) and JY (α4β7 expressing) cells according to procedure described in Lobb et al, Cell Adhes. Commun. 3:385-398 (1995)).

α4β7 [7] = molecular target: T1, α4β7; settings: read-out: IC50, direct binding assay; JY cells, α4β7, VCAM-Ig
Description: as §5

αvβ3 = molecular target: T5, αvβ3 (Homo sapiens, UniProt P05106+P06756); assay: VNRC3 (CHOαvβ3+) cell adhesion to immobilized vitronectin; format: cell-based
T5 construct: expressed in transfected cells; host or cells: CHO (VNRC3 cells), gift of Dr. M. Ginsberg
Description: as §1, §2

αIIbβ3 [8] = molecular target: T6, αIIbβ3 (Homo sapiens, UniProt P05106+P08514); assay: A5 (CHOαIIbβ3+) cell adhesion to immobilized fibrinogen; format: cell-based; settings: A5 (CHOαIIbβ3+) cells, ligand Fg
Description: as §1, §2

α4 inactive G190A mutant = molecular target: T7, α4 inactive G190A mutant (Homo sapiens, UniProt P13612, G223A); assay: Adhesion of CHO cells transfected with α4 G190A mutant to immobilized EC3; format: cell-based; settings: EC3 2 μg/well immobilized; adhesion identical with non transfected cells
T7 construct: expressed in transfected cells; host or cells: CHO, gift of Dr. Y. Takada
Description: as §1
EC3 (2 μg/well) and HP2/1 (1 μg/well) were immobilized on the 96well plate. The CHO cells were labeled with CMFDA and adhesion was performed as described above. […] Only A2 cells expressing wild type α4 adhered to immobilized HP2/1.

αIIbβ3 [9] = molecular target: T6, αIIbβ3; assay: ADP-induced platelet aggregation in platelet rich plasma (ADP PA); format: cell-based; set-up: endogenous in cells; host or cells: platelets in platelet rich plasma; settings: Platelets, αIIbβ3, ligand Fg, 30 μM ADP
Description: Blood from a healthy donor was collected into a syringe containing sodium citrate as an anticoagulant. The anticoagulated blood was centrifuged at 400 g for 17 minutes, and platelet rich plasma (PRP) was removed by aspiration.

α4β1 [10] = molecular target: T8, α4β1 (UniProt G3HZ55+P13612); assay: α4B2 (CHOα4+/α5−) cell adhesion to immobilized VCAM-1; format: cell-based, human; set-up: expressed in transfected cells; host or cells: B2 CHO cells (α5-deficient), gift of Dr. Y. Takada; settings: α4B2 (CHOα4+/α5−) cells, ligand VCAM-1
Description: as §1
Chinese hamster ovary cells transfected with human α4 integrin were provided by Dr. Y. Takada (Scripps Research Institute, La Jolla, Calif.). […] The bound cells were lysed with 0.5% Triton X-100, and fluorescence was measured.
as §2

α4β1 and α4β7 integrins = assay: Panel of α4 integrin cell adhesion assays; format: cell-based; settings: range over assays
Description: as §1, §2

[11] = test system: lymphocyte infiltration of pancreatic Langerhans islets; assay: Lymphocyte infiltration of Langerhans islets in Non Obese Diabetic (NOD) mice; format: in vivo, mouse
Description: Female NOD mice from […] of age were purchased from Jackson Laboratory (Bar Harbor, Me.).
After nine weeks of treatment the animals were sacrificed by exposure to CO2. The pancreas was removed, frozen, and stored at −70° C. until the histological analysis. For the histological analysis, five μm sections of frozen tissue were fixed with acetone. For detection of infiltrating lymphocytes, the sections were stained with hematoxylin/eosin, and observed by light microscopy.

α5β1 = molecular target: T9, α5β1 (Homo sapiens, UniProt P05556+P08648); assay: K562 cell adhesion to immobilized fibronectin; format: cell-based; settings: 5 μg per sample of protein from fraction
T9 construct: host or cells: K562
Description: as §1

α4β1 [12] = molecular target: T8, α4β1; assay: A2 (CHOα4+) cell adhesion to immobilized VCAM-1; format: cell-based, human; set-up: expressed in transfected cells; host or cells: CHO (A2 cells, α4+ α5+), gift of Dr. Y. Takada; settings: A2 (CHOα4+) cells, ligand VCAM-1
Description: as §1, §2

α6β1 = molecular target: T10, α6β1 (Homo sapiens, UniProt P05556+P23229); assay: K562 (α6+) cell adhesion to laminin; format: cell-based
T10 construct: expressed in transfected cells; host or cells: K562 transfected with α6
Description: as §1, §2

T5 sequence (P06756 31-889 limits assumed): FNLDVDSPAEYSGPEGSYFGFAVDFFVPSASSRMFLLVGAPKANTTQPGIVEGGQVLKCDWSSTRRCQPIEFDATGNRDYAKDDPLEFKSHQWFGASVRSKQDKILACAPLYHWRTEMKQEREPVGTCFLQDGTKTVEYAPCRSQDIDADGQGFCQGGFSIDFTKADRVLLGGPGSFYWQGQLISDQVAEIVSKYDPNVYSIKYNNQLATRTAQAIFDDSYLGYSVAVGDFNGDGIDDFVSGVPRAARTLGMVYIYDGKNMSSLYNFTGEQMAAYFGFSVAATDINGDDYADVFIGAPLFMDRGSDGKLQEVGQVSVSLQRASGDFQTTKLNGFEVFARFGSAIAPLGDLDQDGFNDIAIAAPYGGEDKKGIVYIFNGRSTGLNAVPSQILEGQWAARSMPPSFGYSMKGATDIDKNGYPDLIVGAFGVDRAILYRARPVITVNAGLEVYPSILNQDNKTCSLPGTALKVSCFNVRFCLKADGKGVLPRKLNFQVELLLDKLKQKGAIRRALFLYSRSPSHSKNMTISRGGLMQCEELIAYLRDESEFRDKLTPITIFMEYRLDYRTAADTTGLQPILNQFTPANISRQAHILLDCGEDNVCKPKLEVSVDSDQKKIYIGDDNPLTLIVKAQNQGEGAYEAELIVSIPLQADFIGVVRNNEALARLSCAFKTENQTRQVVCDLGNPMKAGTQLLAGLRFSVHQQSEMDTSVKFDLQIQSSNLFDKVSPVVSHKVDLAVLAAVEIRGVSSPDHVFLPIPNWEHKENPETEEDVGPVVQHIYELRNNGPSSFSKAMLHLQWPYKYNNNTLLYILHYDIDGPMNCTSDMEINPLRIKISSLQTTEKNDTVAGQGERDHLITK
T5 sequence (P06756 891-1048 partner limits assumed): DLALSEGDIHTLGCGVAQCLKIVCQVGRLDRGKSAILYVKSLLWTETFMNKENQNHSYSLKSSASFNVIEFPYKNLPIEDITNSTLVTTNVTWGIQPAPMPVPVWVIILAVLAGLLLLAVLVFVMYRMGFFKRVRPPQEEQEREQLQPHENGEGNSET
T5 sequence (P05106 27-788): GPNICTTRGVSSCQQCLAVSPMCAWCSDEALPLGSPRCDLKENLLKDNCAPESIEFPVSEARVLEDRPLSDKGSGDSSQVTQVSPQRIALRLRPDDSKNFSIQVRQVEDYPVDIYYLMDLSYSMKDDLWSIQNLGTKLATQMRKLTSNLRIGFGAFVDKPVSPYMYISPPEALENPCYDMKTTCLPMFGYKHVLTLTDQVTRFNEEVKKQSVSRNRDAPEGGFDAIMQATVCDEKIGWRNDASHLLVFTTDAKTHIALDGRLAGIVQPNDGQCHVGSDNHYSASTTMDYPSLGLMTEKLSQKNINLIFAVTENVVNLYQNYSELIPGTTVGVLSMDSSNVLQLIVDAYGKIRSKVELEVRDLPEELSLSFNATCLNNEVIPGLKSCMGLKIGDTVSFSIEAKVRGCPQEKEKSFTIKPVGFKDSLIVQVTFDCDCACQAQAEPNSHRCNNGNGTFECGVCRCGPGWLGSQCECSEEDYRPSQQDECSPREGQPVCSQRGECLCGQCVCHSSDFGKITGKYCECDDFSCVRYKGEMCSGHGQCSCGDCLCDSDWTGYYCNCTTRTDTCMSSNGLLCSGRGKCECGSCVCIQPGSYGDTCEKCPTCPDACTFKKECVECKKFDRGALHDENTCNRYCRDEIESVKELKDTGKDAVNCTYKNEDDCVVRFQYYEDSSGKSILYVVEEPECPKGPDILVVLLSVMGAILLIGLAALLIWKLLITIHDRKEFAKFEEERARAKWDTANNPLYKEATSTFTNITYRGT
T10 sequence (P23229 24-938 limits assumed): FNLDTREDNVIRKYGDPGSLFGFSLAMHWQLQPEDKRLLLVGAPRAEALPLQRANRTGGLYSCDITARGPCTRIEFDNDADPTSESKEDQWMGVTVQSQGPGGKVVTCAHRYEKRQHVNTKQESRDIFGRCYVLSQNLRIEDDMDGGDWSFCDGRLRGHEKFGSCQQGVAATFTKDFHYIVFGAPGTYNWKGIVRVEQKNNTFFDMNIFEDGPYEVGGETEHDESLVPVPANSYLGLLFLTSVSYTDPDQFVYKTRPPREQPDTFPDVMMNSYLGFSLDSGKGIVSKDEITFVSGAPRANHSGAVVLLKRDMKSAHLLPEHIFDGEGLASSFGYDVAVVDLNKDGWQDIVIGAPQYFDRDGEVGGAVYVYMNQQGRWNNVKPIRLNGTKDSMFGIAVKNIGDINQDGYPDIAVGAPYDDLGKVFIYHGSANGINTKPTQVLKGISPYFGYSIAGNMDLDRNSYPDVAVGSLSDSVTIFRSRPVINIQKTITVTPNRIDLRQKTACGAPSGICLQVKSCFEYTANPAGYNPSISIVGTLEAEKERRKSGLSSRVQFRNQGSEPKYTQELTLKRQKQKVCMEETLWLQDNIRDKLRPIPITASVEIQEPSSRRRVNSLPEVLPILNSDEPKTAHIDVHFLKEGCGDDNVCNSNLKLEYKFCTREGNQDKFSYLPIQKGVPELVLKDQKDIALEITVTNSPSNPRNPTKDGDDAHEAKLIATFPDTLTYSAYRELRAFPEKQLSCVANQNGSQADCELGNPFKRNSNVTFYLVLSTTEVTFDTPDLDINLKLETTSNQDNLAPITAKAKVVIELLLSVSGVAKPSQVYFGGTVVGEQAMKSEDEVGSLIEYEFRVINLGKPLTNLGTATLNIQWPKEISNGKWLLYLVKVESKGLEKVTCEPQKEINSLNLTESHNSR
T10 sequence (P23229 942-1130 partner limits assumed): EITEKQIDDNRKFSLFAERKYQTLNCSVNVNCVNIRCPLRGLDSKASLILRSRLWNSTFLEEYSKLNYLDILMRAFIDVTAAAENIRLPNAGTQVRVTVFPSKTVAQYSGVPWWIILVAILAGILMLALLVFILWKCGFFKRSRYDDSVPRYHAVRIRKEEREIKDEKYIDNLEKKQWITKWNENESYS
T10 sequence (P05556 21-798): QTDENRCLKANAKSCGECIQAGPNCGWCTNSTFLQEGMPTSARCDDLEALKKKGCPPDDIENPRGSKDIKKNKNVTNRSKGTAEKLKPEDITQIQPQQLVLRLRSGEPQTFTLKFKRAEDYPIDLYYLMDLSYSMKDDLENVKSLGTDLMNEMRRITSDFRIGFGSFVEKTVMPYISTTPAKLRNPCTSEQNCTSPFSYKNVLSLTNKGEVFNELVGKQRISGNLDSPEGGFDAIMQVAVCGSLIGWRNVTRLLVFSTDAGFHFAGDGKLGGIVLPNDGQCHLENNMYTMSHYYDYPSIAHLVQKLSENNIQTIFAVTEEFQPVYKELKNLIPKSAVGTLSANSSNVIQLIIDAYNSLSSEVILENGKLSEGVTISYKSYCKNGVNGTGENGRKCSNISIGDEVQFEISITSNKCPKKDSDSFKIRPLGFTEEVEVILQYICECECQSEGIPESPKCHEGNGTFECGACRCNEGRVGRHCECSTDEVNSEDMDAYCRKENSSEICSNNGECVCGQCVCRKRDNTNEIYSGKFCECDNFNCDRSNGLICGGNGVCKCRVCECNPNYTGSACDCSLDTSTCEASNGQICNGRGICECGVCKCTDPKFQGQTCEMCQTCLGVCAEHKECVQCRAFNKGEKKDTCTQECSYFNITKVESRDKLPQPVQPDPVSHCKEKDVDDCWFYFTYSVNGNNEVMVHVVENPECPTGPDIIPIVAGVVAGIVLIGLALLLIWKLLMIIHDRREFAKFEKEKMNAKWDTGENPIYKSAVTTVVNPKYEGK
T9 sequence (P08648 42-894 limits assumed): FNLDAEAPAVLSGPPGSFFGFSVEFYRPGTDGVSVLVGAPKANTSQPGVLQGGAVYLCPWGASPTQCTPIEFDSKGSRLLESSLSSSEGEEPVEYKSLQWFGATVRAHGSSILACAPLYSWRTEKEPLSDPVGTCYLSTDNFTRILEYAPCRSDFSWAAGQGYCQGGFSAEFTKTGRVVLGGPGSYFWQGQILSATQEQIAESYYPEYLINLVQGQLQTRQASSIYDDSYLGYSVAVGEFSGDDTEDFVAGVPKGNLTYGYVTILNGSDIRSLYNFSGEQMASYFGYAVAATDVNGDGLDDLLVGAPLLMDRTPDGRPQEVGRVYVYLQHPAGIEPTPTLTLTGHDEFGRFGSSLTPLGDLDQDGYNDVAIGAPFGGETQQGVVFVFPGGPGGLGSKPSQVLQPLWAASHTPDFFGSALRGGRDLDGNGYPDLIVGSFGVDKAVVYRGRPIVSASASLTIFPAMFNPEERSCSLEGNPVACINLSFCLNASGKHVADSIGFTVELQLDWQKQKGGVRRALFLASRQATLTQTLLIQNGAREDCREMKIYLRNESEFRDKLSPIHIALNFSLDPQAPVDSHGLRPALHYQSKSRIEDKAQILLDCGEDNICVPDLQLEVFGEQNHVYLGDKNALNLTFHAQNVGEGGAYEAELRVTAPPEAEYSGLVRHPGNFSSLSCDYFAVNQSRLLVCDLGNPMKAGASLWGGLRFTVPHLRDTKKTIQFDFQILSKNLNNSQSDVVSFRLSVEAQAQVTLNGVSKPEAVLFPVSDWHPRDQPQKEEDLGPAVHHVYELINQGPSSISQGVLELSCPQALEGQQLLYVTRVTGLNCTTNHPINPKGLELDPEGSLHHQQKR
T9 sequence (P08648 895-1049 partner limits assumed): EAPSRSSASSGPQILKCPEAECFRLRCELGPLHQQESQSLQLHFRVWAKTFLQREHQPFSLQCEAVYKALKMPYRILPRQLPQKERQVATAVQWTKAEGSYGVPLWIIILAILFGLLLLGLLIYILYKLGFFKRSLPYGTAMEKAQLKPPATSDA
T9 sequence (P05556 21-798): as the sequence (P05556 21-798) above

B1: EC-3 (protein, listed as Echis carinatus)
chain 1: NSVHPCCDPVKCEPREGEHCISGPCCRNCYFLRAGTVCKRAVGDDVDDYCSGITPDCPRNRYKGKED
chain 2: NSVHPCCDPVKCEPREGEHCISGPCCRNCKFLNAGTICKRAMLDGLNDYCTGISTDCPRNRYKGKED
α4β7 [1]
  IC50: 5 nM
α4β1 integrin [2]
  inhibition of HP2/1 binding to Jurkat cells: No inhibitory effect
α4β1 integrin [3]
  inhibition of HP2/1 binding to α4B2 cells: inhibition of HP2/1 binding
α4β1 [4]; 5 μg per sample of protein from fraction
  inhibitory effect on Jurkat cell binding to immobilized VCAM-1: significant inhibitory effects
α4β1 [4]; Jurkat cells, ligand VCAM-1, read-out: IC50, cell adhesion
  IC50: 25 nM
α4β1 [5]
  IC50: 100 nM
α4β1 [6]
  IC50: 28 nM
α4β7 [7]
  IC50: 6 nM
αvβ3; VNRC3 (CHOαvβ3+) cells, ligand Vn
  IC50: > 10000 nM
αvβ3; up to 10 μM
  inhibition of αvβ3-dependent adhesion: no inhibition
αIIbβ3 [8]
  IC50: 500 nM
α4 inactive G190A mutant
  interaction of inactive G190A α4 mutant with immobilized EC3: did not interact
αIIbβ3 [9]
  IC50: 1000 nM
α4β1 [10]
  IC50: 30 nM
α4β1 and α4β7 integrins; anchorage-dependent and anchorage-independent cells, read-out: concentration of highly potent inhibition of interaction of cells expressing α4β1 with VCAM-1 or CS-1
  IC50: 20 to 300 nM
α4β1 and α4β7 integrins; read-out: IC50, adhesion of cells expressing α4β1 and α4β7 integrins to VCAM-1 and MadCAM-1
  IC50: 5 to 300 nM
[11]; ++ = ⅓ of the islet infiltrated, of 27 (echistatin) or 29 (EC-3) islets, nine weeks i.p.
  Number of Islets, Infiltration Score ++: 7
[11]; +++ = ½ or more of the islet infiltrated, of 27 (echistatin) or 29 (EC-3) islets, nine weeks i.p.
  Number of Islets, Infiltration Score +++: 0
[11]; NOD mice, i.p. three times per week for nine weeks, echistatin 1 μg/mouse, EC-3 3 μg/mouse, 10 animals per group
  Number of Animals without infiltration: 2
[11]; echistatin 1 μg/mouse, EC-3 3 μg/mouse, i.p. three times per week, nine weeks
  effect on lymphocyte infiltration in pancreatic islets of NOD mice (in words): reduced levels of lymphocyte infiltration; also recorded: can block lymphocyte invasion; also recorded: reduced the level of lymphocyte infiltration
[11]; − = no infiltration, of 27 (echistatin) or 29 (EC-3) islets, nine weeks i.p.
  Number of Islets, Infiltration Score −: 10
α5β1
  inhibition of binding of K562 cells to immobilized fibronectin: inhibited binding
α4β1 [12]
  IC50: 30 nM
α6β1; K562 (α6+) cells, α6β1, ligand Lm
  IC50: > 10000 nM
α6β1; at concentration 10 μM
  inhibition of adhesion to laminin of K562 cells transfected with α6: neither echistatin nor EC3 inhibited
